According to US20190021294A1 (WAKE FOREST UNIVERSITY HEALTH SCIENCES, published 2019):

Biological target: the molecule itself
Experiment: X-ray crystal structure of the TREX1 D18N-dsDNA complex (homodimer of protomers)
Method: Structure Determination. The mouse recombinant Trex1 enzyme (amino acids 1-242) was prepared and crystallized with a dsDNA oligonucleotide. The X-ray data were collected and processed as described further below.
Protein Crystallization and X-ray Data Collection. The TREX1 D18N mutant was crystallized using the sitting drop vapor diffusion technique. The protein was dialyzed in 20 mM MES (pH 6.5), 50 mM NaCl and concentrated to 10 mg/mL. The pseudo-palindromic oligonucleotide DNA used for crystallization (5′-[…]-3′ (SEQ ID NO:1, Operon)) was self-annealed in buffer consisting of 20 mM NaCl, 5 mM MgCl₂, and 5 mM MES, pH 6.5. The complex was formed by incubating dsDNA with the protein in a 1:1 ratio and 5 mM magnesium chloride. A volume of 1 μl protein complex at 4 mg/ml TREX1 was mixed with an equal volume of reservoir solution and placed on a bridge above 500 μl of the reservoir solution. Optimized crystals of the TREX1 D18N mutant grew in 0.1 M sodium acetate and 9% PEG 4000 at 25° C. Prior to data collection all crystals were immersed in reservoir solution containing 10% oil (1:1 mineral oil and pantone-N) in preparation for cryo-cooling. Crystals were mounted on a nylon loop and flash cooled to 100 K in a stream of liquid nitrogen.

B1: mouse recombinant TREX1 D18N enzyme (amino acids 1-242) (enzyme, Mus musculus, UniProt Q91XB0 1-242, looked up)
chain: MGSQTLPHGHMQTLIFLNLEATGLPSSRPEVTELCLLAVHRRALENTSISQGHPPPVPRPPRVVDKLSLCIAPGKACSPGASEITGLSKAELEVQGRQRFDDNLAILLRAFLQRQPQPCCLVAHNGDRYDFPLLQTELARLSTPSPLDGTFCVDSIAALKALEQASSPSGNGSRKSYSLGSIYTRLYWQAPTDSHTAEGDVLTLLSICQWKPQALLQWVDEHARPFSTVKPMYGTPATTGTT
notes: range 1-242; Written as one protomer, because the entry is the protomer-protomer association; also called TREX1 D18N mutant; TREX1 D18N protomer
Q: Does B1 bind?
A: binds
